The results in this text go back to FireProtDB (doi:10.1021/bi00102a015).

First the molecules themselves.
B1: Cytochrome c2, P00094 (parent)
chain: MKISLTAATVAALVLAAPAFAGDAAKGEKEFNKCKTCHSIIAPDGTEIVKGAKTGPNLYGVVGRTAGTYPEFKYKDSIVALGASGFAWTEEDIATYVKDPGAFLKEKLDDKKAKTGMAFKLAKGGEDVAAYLASVVK

The variants in the series derive from B1. The following applies: Rhodobacter capsulatus (strain ATCC BAA-309 / NBRC 16581 / SB1003); pH 7.5; 25 °C; GdnHCl; CD; Tris-HCl 20 mM; NaCl 40 mM; structure 1C2R; whole UniProt chain shown.

As to K35E, the “ddG of mutation (higher = less stable)” value was 0.9 kcal/mol, the denaturant m value came out at 2.8 kcal/mol/M, the “denaturant midpoint (higher = more stable)” value (“denaturant midpoint” below) turned out to be 1.2 M and the unfolding free energy turned out to be 3.5 kcal/mol.

Regarding K53E, the “ddG of mutation (higher = less stable)” value was -0.4 kcal/mol, the denaturant m value was found to be 3 kcal/mol/M, the “denaturant midpoint” value amounted to 1.6 M and the unfolding free energy was determined as 4.8 kcal/mol.

K33D: the “ddG of mutation (higher = less stable)” value amounted to 1.1 kcal/mol, the denaturant m value amounted to 2.8 kcal/mol/M, the “denaturant midpoint” value worked out at 1.2 M and the unfolding free energy was found to be 3.3 kcal/mol.

As for K35E K53E, the “ddG of mutation (higher = less stable)” value amounted to 0.8 kcal/mol, the denaturant m value worked out at 3 kcal/mol/M, the “denaturant midpoint” value was determined as 1.2 M and the unfolding free energy stood at 3.6 kcal/mol.
